In assay [1] the target is T1, 4H3638-bN.
T1 chain: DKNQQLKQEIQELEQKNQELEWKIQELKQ
As to the kind of experiment: two-hybrid library CCNG1.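 Note: natural log of median RNA to DNA barcode read ratio; higher means stronger binding.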

The target in assay [2] is T2, 4H3817-bN.
T2 chain: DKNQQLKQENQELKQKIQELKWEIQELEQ
As to the kind of experiment: two-hybrid library CCNG1.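 Note: natural log of median RNA to DNA barcode read ratio; higher means stronger binding.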

Assay [3] has as its target T3, 4H3974-bN.
T3 chain: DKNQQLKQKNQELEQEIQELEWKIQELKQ
As to the kind of experiment: two-hybrid library CCNG1.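 Note: natural log of median RNA to DNA barcode read ratio; higher means stronger binding.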

The target in assay [4] is T4, 4H570-bN.
T4 chain: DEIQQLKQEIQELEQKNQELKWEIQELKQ
As to the kind of experiment: two-hybrid library CCNG1.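 Note: natural log of median RNA to DNA barcode read ratio; higher means stronger binding.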

Assay [5] deals with T5, 4H584-bN.
T5 chain: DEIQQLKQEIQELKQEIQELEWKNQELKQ
In words: two-hybrid library CCNG1.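 Note: natural log of median RNA to DNA barcode read ratio; higher means stronger binding.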

In assay [6] the target is T6, 4H619-bN.
T6 chain: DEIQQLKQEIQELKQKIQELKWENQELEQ
As to the kind of experiment: two-hybrid library CCNG1.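 Note: natural log of median RNA to DNA barcode read ratio; higher means stronger binding.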

The target of assay [7] is T7, 4H850-bN.
T7 chain: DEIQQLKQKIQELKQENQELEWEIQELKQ
In words: two-hybrid library CCNG1.

The target in assay [8] is T8, 4H906-bN.
T8 chain: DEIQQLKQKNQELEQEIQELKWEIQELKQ
As to the kind of experiment: two-hybrid library CCNG1.

For assay [9], the target named is T9, 4H953-bH.
T9 chain: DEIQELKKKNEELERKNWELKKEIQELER
As to the kind of experiment: two-hybrid library CCNG1.

In assay [10] the target is T10, 4H278-AA.
T10 chain: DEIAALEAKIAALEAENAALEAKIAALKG
As to the kind of experiment: two-hybrid library CCmax.

Assay [11] addresses T11, 4H2873-AA.
T11 chain: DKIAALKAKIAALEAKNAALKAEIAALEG
In words: two-hybrid library CCmax. The following applies: mean of both orientations.

The target in assay [12] is T12, 4H2985-AA.
T12 chain: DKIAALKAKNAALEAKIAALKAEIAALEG
As to the kind of experiment: two-hybrid library CCmax. The settings on record: mean of both orientations.

Assay [13] has as its target T13, 4H3134-AA.
T13 chain: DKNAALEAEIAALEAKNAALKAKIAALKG
In words: two-hybrid library CCmax. The settings on record: mean of both orientations.

The target of assay [14] is T14, 4H3409-AA.
T14 chain: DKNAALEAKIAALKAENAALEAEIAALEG
As to the kind of experiment: two-hybrid library CCmax. The settings on record: mean of both orientations.

The target of assay [15] is T15, 4H3625-AA.
T15 chain: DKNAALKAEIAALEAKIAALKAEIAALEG
In words: two-hybrid library CCmax. The following applies: mean of both orientations.

Assay [16] concerns the target T16, 4H390-AA.
T16 chain: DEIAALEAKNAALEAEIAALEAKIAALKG
In words: two-hybrid library CCmax. The following applies: mean of both orientations.

The target of assay [17] is T17, 4H3940-AA.
T17 chain: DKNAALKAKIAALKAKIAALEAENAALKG
As to the kind of experiment: two-hybrid library CCmax. The settings on record: mean of both orientations.

Assay [18] addresses T18, 4H510-AA.
T18 chain: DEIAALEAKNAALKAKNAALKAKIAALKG
As to the kind of experiment: two-hybrid library CCmax. The settings on record: mean of both orientations.

The target of assay [19] is T19, 4H775-AA.
T19 chain: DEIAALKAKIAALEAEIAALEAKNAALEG
In words: two-hybrid library CCmax.

In assay [20] the target is T20, 4H816-AA.
T20 chain: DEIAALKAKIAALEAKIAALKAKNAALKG
In words: two-hybrid library CCmax. The settings on record: mean of both orientations.

Assay [21] concerns the target T21, 4H87-AA.
T21 chain: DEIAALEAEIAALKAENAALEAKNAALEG
In words: two-hybrid library CCmax. The following applies: mean of both orientations.

In assay [22] the target is T22, 4H3631-bA.
T22 chain: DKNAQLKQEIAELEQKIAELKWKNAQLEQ
In words: two-hybrid library CCNG1.

For assay [23], the target named is T23, 4H3638-bA.
T23 chain: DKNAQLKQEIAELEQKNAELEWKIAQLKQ
In words: two-hybrid library CCNG1.

In assay [24] the target is T24, 4H3817-bA.
T24 chain: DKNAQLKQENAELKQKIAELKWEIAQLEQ
In words: two-hybrid library CCNG1.

Assay [25] has as its target T25, 4H3974-bA.
T25 chain: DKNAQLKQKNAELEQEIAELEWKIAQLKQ
As to the kind of experiment: two-hybrid library CCNG1.

In assay [26] the target is T26, 4H570-bA.
T26 chain: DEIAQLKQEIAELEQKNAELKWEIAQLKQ
In words: two-hybrid library CCNG1.

The target in assay [27] is T27, 4H584-bA.
T27 chain: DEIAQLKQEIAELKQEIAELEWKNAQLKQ
As to the kind of experiment: two-hybrid library CCNG1.

Assay [28] addresses T28, 4H619-bA.
T28 chain: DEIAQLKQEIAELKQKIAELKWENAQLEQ
In words: two-hybrid library CCNG1.

Assay [29] concerns the target T29, 4H850-bA.
T29 chain: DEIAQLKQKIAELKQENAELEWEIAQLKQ
In words: two-hybrid library CCNG1.

The target in assay [30] is T30, 4H906-bA.
T30 chain: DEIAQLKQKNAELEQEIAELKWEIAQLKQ
In words: two-hybrid library CCNG1.

As for DKNQQLKQEIQELEQKNQELEWKIQELKQ [4H3638-bN], the interaction score in assay [1] was 0.732; in assay [2], -0.442; in assay [3] it was -0.469; in [4], 0.408; in assay [5] it was 0.234; in assay [6], -1.26. The interaction score in assay [7] was 0.801; in assay [8] it was -0.17; in assay [9], -2.56.

DEIAALEAKIAALEAENAALEAKIAALKG [4H278-AA]: the interaction score was 1.38 in [10]; 1.66 in assay [11]; 1.94 in assay [12]; 1.9 in [13]; 0.702 in assay [14]; 1.32 in assay [15]. Further, the interaction score in [16] was 1.6; in assay [17], 0.936; in [18] it was 1.09; in assay [19], -1.16; in [20], 0.427; in assay [21], -1.44.

Regarding DKNAQLKQEIAELEQKIAELKWKNAQLEQ [4H3631-bA], the interaction score in assay [22] was 0.816; in [23] it was -0.00348; in assay [24], 0.452; in assay [25], 0.937; in assay [26], -0.919; in [27], 0.0123. Further, the interaction score is -0.0328 in assay [28], -0.369 in assay [29] and -0.872 in assay [30].

The record behind these values is article PMC10397247.
